Reference: patent publication US20240279630, “ISOLATED CAS13 PROTEIN AND USE THEREOF” (GUANGZHOU REFORGENE MEDICINE CO., LTD., published 2024)

Columns and labels:
Test in all cases: cell_activity; reversed DR/guide order
Conditions in all cases: tags: NLS fusion
CasRfg.2 (Cas13d) = biological target: T1, CasRfg.2 (Cas13d) (metagenome)
T1 chain: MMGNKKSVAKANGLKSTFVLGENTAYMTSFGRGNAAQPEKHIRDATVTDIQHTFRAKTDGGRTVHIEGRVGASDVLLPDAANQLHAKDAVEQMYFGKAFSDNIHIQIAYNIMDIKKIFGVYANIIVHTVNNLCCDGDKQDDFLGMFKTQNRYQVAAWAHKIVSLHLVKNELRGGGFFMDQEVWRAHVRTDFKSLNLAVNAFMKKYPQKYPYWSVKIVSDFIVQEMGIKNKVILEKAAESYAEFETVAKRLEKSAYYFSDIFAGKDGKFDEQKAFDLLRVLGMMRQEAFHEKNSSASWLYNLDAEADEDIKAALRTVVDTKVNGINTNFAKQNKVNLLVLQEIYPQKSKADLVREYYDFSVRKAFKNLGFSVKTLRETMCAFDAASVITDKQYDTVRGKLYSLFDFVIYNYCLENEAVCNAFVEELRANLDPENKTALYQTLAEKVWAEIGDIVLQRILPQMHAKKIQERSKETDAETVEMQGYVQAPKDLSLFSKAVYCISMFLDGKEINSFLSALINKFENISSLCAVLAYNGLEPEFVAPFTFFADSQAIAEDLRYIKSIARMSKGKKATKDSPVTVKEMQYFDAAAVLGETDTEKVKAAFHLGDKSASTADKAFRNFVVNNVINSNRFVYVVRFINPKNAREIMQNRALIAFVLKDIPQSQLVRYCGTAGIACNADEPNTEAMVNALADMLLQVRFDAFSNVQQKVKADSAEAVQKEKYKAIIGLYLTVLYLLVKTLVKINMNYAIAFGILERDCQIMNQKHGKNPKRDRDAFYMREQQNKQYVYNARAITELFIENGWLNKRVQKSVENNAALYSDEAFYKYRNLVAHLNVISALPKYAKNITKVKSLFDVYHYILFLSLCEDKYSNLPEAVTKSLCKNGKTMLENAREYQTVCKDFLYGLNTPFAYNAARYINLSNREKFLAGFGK
Procedure: (§1) 293T-AQp1 cells were transfected with the verification vectors targeting the endogenous gene AQp1 mRNA of Cas13 m.2, Cas13 m.3, Cas13 m.5, CasRfg.2, Cas13 m.2-r, Cas13 m.3-r, Cas13 m.5-r, and CasRfg.2-r, and a control plasmid (which was the same as the verification vector plasmid targeting the endogenous gene AQp1 mRNA of CasRx in the aforementioned Example 5) at 800 ng in a 24-well plate. The negative control group was transfected with the CasRx-BpiI plasmid in the aforementioned Example 5.
(§2) The transfection method was as follows: [0296] 1. The cells were digested by trypsin (0.25% of Trypsin, EDTA, Thermo, 11058021), counted, and plated into a 24-well plates at 2×10⁵ cells according to 500 uL per well. [0297] 2. For each transfected sample, the complex was prepared according to the following steps: [0298] a. each well of the 24-well plate into which the cells were added, were added with 50 uL of serum-free Opti-MEM I (Thermo, 25200056) reduced serum medium for dilution of the aforementioned plasmid DNA, and mixed gently; [0299] b. it was gently mixed with Lipofectamine 2000 (Thermo, 11668019) before use, and then 1.8 uL of the Lipofectamine 2000 was diluted in each well, i.e., in 50 uL of the Opti-MEM I medium. It was incubated at room temperature for 5 minutes. Note: it was continued to perform step c within 25 minutes; [0300] c. after incubation for 5 minutes, the diluted DNA was combined with the diluted Lipofectamine 2000. They were gently mixed and incubated at room temperature for 20 minutes (the solution might be cloudy visually). Note: the complex was stabilized at room temperature for 6 hours.
(§3) At 72 h after transfection, the cells were subjected to RNA extraction with a SteadyPure Universal RNA Extraction Kit AG21017 kit, and the RNA concentration was detected with an ultramicro spectrophotometer. The RNA product was reverse transcribed by using an Evo M-MLV Mix Kit with gDNA Clean for qPCR AG11728 reverse transcription kit, and the reverse transcribed product was detected by using a SYBR Green Premix Pro Taq HS qPCR Kit (Low Rox Plus) AG11720 qPCR kit.

Cas13m.5 = biological target: T2, Cas13m.5 (Bacteroidetes bacterium)
T2 chain: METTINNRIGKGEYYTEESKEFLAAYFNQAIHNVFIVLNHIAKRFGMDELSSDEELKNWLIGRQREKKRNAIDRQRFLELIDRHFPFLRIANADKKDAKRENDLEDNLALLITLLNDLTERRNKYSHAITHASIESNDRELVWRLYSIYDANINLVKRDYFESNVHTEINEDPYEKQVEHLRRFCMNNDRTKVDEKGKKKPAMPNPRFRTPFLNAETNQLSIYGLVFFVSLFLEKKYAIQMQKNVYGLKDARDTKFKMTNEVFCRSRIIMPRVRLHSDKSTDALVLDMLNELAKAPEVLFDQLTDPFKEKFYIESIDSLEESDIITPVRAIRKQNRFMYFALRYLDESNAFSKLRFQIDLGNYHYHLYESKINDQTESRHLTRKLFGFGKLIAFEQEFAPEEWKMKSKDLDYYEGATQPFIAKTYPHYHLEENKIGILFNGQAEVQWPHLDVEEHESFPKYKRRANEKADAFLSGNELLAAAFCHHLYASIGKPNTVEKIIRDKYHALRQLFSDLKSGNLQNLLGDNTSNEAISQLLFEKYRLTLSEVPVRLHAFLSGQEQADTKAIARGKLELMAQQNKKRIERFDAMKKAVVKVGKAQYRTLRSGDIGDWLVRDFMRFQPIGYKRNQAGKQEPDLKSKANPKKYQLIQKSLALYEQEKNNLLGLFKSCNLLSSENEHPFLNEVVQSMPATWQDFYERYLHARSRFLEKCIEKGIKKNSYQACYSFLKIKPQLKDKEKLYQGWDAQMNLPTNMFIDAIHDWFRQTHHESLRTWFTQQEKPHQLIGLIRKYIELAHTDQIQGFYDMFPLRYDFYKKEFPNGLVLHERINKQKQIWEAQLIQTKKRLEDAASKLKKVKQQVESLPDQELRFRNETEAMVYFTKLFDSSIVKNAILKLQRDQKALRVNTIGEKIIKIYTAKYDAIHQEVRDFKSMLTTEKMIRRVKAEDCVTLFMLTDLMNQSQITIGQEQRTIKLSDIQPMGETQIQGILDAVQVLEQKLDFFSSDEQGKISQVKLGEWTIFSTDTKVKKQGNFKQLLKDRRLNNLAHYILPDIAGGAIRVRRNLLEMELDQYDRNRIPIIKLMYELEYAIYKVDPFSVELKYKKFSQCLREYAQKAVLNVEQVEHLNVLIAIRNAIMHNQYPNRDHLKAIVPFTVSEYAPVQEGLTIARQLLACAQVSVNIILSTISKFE
Procedure: as §1, §2, §3

Cas13m.2 = biological target: T3, Cas13m.2 (metagenome)
T3 chain: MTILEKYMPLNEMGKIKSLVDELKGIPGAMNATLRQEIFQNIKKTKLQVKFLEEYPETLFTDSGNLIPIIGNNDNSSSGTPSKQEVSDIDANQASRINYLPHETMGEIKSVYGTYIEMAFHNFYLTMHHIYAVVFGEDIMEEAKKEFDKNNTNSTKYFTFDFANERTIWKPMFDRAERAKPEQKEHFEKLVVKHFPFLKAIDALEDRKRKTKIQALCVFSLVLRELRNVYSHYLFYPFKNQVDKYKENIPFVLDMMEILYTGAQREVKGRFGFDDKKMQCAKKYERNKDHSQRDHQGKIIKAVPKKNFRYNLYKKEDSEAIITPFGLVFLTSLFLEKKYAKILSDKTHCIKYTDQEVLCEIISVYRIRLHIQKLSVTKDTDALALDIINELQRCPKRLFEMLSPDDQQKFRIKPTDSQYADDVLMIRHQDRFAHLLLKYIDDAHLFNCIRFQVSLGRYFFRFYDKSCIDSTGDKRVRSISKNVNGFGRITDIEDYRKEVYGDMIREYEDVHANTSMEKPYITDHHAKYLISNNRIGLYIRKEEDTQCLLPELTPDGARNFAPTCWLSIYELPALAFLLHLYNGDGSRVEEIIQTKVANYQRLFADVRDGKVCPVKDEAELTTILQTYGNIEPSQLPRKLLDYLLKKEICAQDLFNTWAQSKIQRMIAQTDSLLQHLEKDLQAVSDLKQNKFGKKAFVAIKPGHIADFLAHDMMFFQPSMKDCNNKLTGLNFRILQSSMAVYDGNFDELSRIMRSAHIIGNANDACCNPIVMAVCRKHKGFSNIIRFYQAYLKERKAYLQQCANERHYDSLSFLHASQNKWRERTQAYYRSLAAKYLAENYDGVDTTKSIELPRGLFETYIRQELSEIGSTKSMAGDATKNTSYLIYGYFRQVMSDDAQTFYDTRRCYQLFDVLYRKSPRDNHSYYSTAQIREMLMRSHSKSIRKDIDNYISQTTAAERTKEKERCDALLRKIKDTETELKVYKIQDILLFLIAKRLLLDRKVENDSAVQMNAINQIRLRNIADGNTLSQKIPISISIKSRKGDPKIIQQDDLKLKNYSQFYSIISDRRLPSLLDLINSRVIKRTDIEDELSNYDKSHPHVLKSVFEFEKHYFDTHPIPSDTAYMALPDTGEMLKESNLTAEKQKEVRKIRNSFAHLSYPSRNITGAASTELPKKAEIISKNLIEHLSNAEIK
Procedure: as §1, §2, §3

Cas13m.3 = biological target: T4, Cas13m.3 (uncultured Bacteroidetes bacterium)
T4 chain: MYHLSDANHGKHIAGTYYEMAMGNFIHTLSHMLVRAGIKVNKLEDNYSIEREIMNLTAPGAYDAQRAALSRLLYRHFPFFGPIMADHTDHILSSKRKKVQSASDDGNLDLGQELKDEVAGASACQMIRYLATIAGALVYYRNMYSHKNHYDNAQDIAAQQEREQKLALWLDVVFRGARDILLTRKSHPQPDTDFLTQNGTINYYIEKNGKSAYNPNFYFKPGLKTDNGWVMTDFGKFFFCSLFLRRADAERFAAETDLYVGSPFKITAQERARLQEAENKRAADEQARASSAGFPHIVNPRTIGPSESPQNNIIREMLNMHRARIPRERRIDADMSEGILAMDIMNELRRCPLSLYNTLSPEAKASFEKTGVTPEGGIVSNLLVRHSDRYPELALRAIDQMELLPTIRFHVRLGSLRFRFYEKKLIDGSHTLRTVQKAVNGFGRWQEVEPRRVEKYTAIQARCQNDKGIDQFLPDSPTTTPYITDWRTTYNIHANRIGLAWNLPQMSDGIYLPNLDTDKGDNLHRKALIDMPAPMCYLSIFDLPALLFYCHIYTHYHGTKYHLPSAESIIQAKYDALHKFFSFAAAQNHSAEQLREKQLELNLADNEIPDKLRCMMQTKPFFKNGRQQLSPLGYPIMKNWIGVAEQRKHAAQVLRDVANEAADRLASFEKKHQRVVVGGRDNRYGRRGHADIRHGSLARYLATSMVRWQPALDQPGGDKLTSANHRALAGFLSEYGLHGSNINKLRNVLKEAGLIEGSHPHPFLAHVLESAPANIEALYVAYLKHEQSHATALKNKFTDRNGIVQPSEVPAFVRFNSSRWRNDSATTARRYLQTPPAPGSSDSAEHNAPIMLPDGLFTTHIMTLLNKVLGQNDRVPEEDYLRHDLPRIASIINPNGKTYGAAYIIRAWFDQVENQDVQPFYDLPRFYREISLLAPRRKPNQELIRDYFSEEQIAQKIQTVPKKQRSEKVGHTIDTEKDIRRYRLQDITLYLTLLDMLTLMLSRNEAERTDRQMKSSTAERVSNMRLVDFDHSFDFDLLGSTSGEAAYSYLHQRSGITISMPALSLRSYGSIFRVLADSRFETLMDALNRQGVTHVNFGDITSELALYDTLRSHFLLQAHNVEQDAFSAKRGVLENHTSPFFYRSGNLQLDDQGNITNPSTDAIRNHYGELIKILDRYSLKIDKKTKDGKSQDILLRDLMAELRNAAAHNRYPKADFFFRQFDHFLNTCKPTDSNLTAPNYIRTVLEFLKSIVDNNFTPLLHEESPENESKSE
Procedure: as §1, §2, §3

B1: AQp1 gRNA CasRfg.2-r (guide-DR) ; AQp1 mRNA site (20 nt guide) (ssRNA ; ssRNA)
RNA 1: GAAGACAAAGAGGGUCGUGGGGUUUUACACCCGUGUAAAACUACACAGUUCUAAAAC
RNA 2: CCACGACCCUCUUUGUCUUC
Q: B1 was tested. Which activity (CasRfg.2 (Cas13d)) did it give?
A: The activity was 0.67 relative mRNA level.

B2: AQp1 gRNA Cas13m.5-r (DR-guide) ; AQp1 mRNA site (20 nt guide) (ssRNA ; ssRNA)
RNA 1: GUUGUGUGUGCCUUUCAAAUUGAAGGCGUUCCCAACGAAGACAAAGAGGGUCGUGG
RNA 2: CCACGACCCUCUUUGUCUUC
Q: Which activity (Cas13m.5) does the source give for B2 here?
A: The activity was 0.74 relative mRNA level.

B3: AQp1 gRNA Cas13m.2-r (DR-guide) ; AQp1 mRNA site (20 nt guide) (ssRNA ; ssRNA)
RNA 1: GUUGUAGAUGACCUCGUUUUGGAGGGGAAACACAACGAAGACAAAGAGGGUCGUGG
RNA 2: CCACGACCCUCUUUGUCUUC
Q: How did the activity (Cas13m.2) turn out when B3 was run?
A: The activity was 0.83 relative mRNA level.

B4: AQp1 gRNA Cas13m.3-r (DR-guide) ; AQp1 mRNA site (20 nt guide) (ssRNA ; ssRNA)
RNA 1: GUUGUAGAAGCCGUUCAUUCGGGACGGUAUGACAACGAAGACAAAGAGGGUCGUGG
RNA 2: CCACGACCCUCUUUGUCUUC
Q: For B4, which activity (Cas13m.3) is on record?
A: The activity was 0.78 relative mRNA level.
